Measurements: patent US20240392040A1 (AKESO HUIKE SHANGHAI, published 2024)
One block for each binder: values may come before it.

Key:
human PD-1-mFc-Biotin = molecular target: T1, human PD-1-mFc-Biotin (human, UniProt Q15116 25-170, limits assumed, biotin label (site not stated)); experiment: competitive ELISA, blocking of PD-1-mFc-Biotin binding to coated human PDL1-mFc
T1 construct: not shown: mouse IgG Fc (mFc)
Description: After incubation, the ELISA plate was blocked with a PBS solution containing 1% BSA at 37° C. for 2 h. After blocking, the plate was washed three times and dried. The antibody was serially diluted on a dilution plate in a 3-fold dilution ratio to achieve 7 concentrations with 80 nM as the starting concentration (at a final concentration of 40 nM), and a blank control was set. […] Then the mixture was incubated at room temperature for 10 min. Then the mixture after reaction was added to the coated ELISA plate, and the ELISA plate was incubated at 37° C. for 30 min. After incubation, the plate was washed three times with PBST and dried. An SA-HRP (KPL, 14-30-00) working solution was added, and the plate was incubated at 37° C. for 30 min. After incubation, the plate was washed four times and dried. Then TMB (Neogen, 308177) was added in the dark for chromogenesis for 5 min, and then a stop solution was added to terminate the chromogenic reaction. The ELISA plate was put into an ELISA plate reader immediately, and the OD value of each well in the ELISA plate was read at 450 nm. The data were analyzed and processed by SoftMax Pro 6.2.1.

human LAG3-mFc = molecular target: T2, human LAG3-mFc (human, UniProt P18627 23-450, limits assumed); experiment: indirect ELISA, coated human LAG3-mFc
T2 construct: not shown: mouse IgG Fc (mFc)
T2 sequence (looked up): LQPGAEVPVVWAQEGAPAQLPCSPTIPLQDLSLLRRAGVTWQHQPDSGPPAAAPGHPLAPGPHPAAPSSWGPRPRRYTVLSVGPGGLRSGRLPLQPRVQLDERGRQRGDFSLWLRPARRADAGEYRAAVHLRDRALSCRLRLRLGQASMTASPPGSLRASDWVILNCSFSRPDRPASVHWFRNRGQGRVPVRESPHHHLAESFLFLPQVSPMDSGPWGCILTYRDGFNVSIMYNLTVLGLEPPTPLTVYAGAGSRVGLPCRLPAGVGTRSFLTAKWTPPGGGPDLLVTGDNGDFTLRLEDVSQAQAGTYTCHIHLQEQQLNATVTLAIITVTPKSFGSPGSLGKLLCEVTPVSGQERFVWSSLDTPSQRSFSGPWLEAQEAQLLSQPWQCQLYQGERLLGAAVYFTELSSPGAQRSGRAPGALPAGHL
Description: Then the ELISA plate coated with the antigen was washed once with PBST and then blocked with a PBS solution containing 1% BSA as a blocking solution at 37° C. for 2 h. After blocking, the ELISA plate was washed 3 times with PBST. The ELISA plate containing the test antibodies was incubated at 37° C. for 30 min and then washed 3 times with PBST. […] After incubation, the plate was washed 4 times with PBST, TMB (Neogen, 308177) was added for chromogenesis in the dark for 5 min, and then a stop solution was added to terminate the chromogenic reaction. The ELISA plate was put into an ELISA plate reader immediately, and the OD value of each well in the ELISA plate was read at 450 nm. The data were analyzed and processed by SoftMax Pro 6.2.1.

human PD-1-mFc = molecular target: T3, human PD-1-mFc (human, UniProt Q15116 25-170, limits assumed); experiment: indirect ELISA, coated human PD-1-mFc
T3 construct: not shown: mouse IgG Fc (mFc)
Description: Then the ELISA plate coated with the antigen was washed once with PBST and then blocked with a PBS solution containing 1% BSA as a blocking solution at 37° C. for 2 h. After blocking, the ELISA plate was washed 3 times with PBST. The ELISA plate containing the test antibodies was incubated at 37° C. for 30 min and then washed 3 times with PBST.
After incubation, the plate was washed 4 times with PBST, TMB (Neogen, 308177) was added for chromogenesis in the dark for 5 min, and then a stop solution was added to terminate the chromogenic reaction. The ELISA plate was put into an ELISA plate reader immediately, and the OD value of each well in the ELISA plate was read at 450 nm. The data were analyzed and processed by SoftMax Pro 6.2.1.

[1] = molecular target: T4, PD-1 on 293T-PD1 membrane surface (full-length human PD-1 on cells) (human, UniProt Q15116 25-288); experiment: flow cytometry on 293T-PD1 cells
T4 construct: whole, on cells; the Promega PD-1 effector cells are bought; also called CHO-K1-PD1 cells
Description: 100 μL of 1% PBSA was then added to each well, and the mixture was centrifuged at 350×g for 5 min, followed by removal of the supernatant. […] The mixture was mixed gently and uniformly, and then incubated on ice for 1 h. 100 μL of 1% PBSA was added to each well, and the mixture was centrifuged at 350×g for 5 min, followed by removal of the supernatant. Then the plate was washed twice with 200 μL of 1% PBSA. […] The mixture was mixed well and then incubated on ice in the dark for 0.5 h. 100 μL of 1% PBSA was added to each well, and the mixture was centrifuged at 350×g for 5 min, followed by removal of the supernatant. Then the plate was washed twice with 200 μL of 1% PBSA. 400 μL of 1% PBSA was added to each well to resuspend the cell pellets, and the mixture was transferred to a flow cytometry tube for FACSCalibur assay.

[2] = molecular target: T4, PD-1 on 293T-PD1 membrane surface …; experiment: competitive flow cytometry on 293T-PD1 cells, competitor PDL-1-mFc 20 nM
Description: 1. […] 100 μL of 1% PBSA was then added to each well, and the mixture was centrifuged and washed. […] 100 μL of a 400-fold diluted FITC goat anti-mouse IgG/IgM antibody (BD, Cat. No. 555988) was added, while 100 μL of 1% PBSA was added for a blank sample. The mixture was mixed well, incubated on ice in the dark for 30 min, washed, and centrifuged. The cells were resuspended and then transferred to a sample loading tube for testing on a flow cytometer.

T4 sequence (Q15116 25-288): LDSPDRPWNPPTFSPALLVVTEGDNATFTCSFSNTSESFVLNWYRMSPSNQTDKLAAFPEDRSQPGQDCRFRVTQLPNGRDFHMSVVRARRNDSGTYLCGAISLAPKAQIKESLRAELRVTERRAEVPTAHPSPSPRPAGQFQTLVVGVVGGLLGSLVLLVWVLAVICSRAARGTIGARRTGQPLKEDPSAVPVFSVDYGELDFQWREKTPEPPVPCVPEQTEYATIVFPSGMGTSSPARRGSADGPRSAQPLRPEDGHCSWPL
T3 sequence (Q15116 25-170 limits assumed): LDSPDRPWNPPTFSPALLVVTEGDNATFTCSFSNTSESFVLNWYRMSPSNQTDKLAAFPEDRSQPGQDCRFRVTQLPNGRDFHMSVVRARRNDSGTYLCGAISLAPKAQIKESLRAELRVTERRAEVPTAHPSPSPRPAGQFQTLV
T1 sequence (Q15116 25-170 limits assumed): as above

- EC50 (human PD-1-mFc-Biotin): 2.98 nM
- EC50 (human LAG3-mFc): 0.377 nM
- EC50 (human PD-1-mFc): 0.046 nM
B1: BS-PL023C (bispecific antibody, human IgG1, kappa)
heavy: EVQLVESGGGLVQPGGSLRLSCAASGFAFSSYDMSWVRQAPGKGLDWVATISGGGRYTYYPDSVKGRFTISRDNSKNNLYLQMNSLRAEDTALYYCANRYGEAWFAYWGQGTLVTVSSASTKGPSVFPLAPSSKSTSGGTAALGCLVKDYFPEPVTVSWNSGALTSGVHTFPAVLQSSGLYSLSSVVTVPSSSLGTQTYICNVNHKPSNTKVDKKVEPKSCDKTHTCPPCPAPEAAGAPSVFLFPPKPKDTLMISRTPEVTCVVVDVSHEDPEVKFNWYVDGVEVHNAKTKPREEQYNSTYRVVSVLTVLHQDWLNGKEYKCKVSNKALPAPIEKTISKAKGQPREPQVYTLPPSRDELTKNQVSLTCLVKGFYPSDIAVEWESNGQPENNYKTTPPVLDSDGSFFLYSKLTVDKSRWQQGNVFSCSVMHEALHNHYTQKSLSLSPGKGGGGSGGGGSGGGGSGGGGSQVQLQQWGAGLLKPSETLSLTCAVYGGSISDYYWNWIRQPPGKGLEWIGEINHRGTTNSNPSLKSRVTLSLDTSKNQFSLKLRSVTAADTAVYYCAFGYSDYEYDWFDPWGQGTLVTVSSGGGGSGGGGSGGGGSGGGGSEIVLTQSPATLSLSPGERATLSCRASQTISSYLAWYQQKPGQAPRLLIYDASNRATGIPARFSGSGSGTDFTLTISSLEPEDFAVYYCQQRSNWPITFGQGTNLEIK
light: DIQMTQSPSSMSASVGDRVTFTCRASQDINTYLSWFQQKPGKSPKTLIYRANRLVSGVPSRFSGSGSGQDYTLTISSLQPEDMATYYCLQYDEFPLTFGAGTKLELKRTVAAPSVFIFPPSDEQLKSGTASVVCLLNNFYPREAKVQWKVDNALQSGNSQESVTEQDSKDSTYSLSSTLTLSKADYEKHKVYACEVTHQGLSSPVTKSFNRGEC
notes: Morrison form (IgG-scFv): an scFv at the C-terminus of each of the two heavy chains

- EC50 [1]: 6.87 nM
- EC50 (human PD-1-mFc-Biotin): 5.04 nM
- EC50 (human LAG3-mFc): 0.685 nM
- EC50 (human PD-1-mFc): 0.103 nM
B2: Bs-PLV02 (bispecific antibody, human IgG4 S228P, kappa, F234A L235A)
heavy: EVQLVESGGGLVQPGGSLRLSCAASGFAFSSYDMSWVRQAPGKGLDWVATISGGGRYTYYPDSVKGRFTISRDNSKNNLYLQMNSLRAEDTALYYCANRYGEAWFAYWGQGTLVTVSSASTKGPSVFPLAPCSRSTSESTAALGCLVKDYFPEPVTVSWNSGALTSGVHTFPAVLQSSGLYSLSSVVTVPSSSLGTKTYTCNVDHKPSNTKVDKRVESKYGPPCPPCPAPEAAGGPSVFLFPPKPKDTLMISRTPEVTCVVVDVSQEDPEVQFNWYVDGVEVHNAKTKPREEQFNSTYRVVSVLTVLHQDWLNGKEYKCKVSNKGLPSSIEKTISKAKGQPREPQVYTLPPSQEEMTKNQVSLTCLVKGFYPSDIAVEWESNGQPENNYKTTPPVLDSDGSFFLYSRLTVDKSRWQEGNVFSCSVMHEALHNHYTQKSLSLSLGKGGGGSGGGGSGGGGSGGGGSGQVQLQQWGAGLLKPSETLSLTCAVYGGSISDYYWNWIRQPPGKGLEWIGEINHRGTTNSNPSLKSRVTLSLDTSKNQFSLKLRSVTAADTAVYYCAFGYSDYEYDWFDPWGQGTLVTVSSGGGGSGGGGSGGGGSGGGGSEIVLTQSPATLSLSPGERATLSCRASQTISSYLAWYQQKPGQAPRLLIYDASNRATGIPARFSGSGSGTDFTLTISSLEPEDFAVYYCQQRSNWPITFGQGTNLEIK
light: B1 light
notes: as for B1

- EC50 [1]: 5.35 nM
- EC50 [2]: 2.51 nM
- EC50 (human PD-1-mFc-Biotin): 2.61 nM
- EC50 (human PD-1-mFc): 0.02 nM
B3: 14C12H1L1(hG1TM) (antibody, human IgG1, kappa, V domains shown)
VH: EVQLVESGGGLVQPGGSLRLSCAASGFAFSSYDMSWVRQAPGKGLDWVATISGGGRYTYYPDSVKGRFTISRDNSKNNLYLQMNSLRAEDTALYYCANRYGEAWFAYWGQGTLVTVSS
VL: DIQMTQSPSSMSASVGDRVTFTCRASQDINTYLSWFQQKPGKSPKTLIYRANRLVSGVPSRFSGSGSGQDYTLTISSLQPEDMATYYCLQYDEFPLTFGAGTKLELKR
notes: Humanized anti-PD-1 IgG1 with L234A, L235A, G237A (EU numbering)
